The assay has as its target T1, ETA, wild type, as used in the size exclusion chromatography analysis with Fab301 (Homo sapiens, UniProt P25101).
T1 construct: endothelin receptor type A (ETA), human; Probably one of the insect cell constructs m1 or m3; also called WT; WT ETA
Briefly: SEC; retention time of each ETA ECL2 alanine mutant–Fab301 complex against the WT–Fab301 complex. A general note: Size exclusion chromatography separates by hydrodynamic size, large species first.

T1 sequence (P25101 21-427): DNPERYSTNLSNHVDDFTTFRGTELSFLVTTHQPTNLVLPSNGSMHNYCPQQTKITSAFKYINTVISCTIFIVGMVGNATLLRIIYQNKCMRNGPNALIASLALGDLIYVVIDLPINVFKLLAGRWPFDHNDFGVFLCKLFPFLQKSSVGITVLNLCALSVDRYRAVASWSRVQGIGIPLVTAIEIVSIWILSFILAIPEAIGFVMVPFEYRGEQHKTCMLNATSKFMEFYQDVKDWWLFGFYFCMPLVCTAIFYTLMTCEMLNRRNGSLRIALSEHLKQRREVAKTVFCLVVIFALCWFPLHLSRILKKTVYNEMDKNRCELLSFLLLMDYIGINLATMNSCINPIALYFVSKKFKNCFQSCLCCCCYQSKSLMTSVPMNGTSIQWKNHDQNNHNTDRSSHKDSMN

B1: Fab301, Fab fragment of the anti-ETA monoclonal antibody Getagozumab (Fab, V domains shown)
VH: QVTLKESGPTLVKPTQTLTLTCTFSGFSLTTSGLGVAWIRQPPGKALEWLAHIWSDGDTRYYPALKNRLTITKDTSKNQVVLTMTNMDPVDTATYYCAHMKDDSLYFDNWGQGTLVTVSS
VL: EIVLTQSPDFQSVTPKEKVTITCRASQNIGTSIHWYQQKPDQYPKLLIKYASKSISGVPSRFSGSGSGTDFTLTINSLEAEDAATYYCQHSYSFPWTFGQGTKVEIK
notes: Purified on Ni-NTA, so one chain probably carries a His tag; In the ambrisentan and zibotentan maps the dynamic regions of Fab301 were masked out; also called ETA-specific antibody; Getagozumab Fab; source: Hi5 insect cells, baculovirus (pFastBac Dual), from the culture supernatant, purified (Ni-NTA, Superdex 200)
As for B1, the binding result is listed as “binds”.
